Assay results published in patent US8399204B2, “Method for screening of substance which alter GPR120-mediated cell-stimulating activities” (Eisai R&D Management Co., Ltd., priority 2005, dated 2013).

T1: human GPR120 (Homo sapiens, UniProt Q5NUL3)
T1 construct: open reading frame which starts with ATG of the nucleotide number 1-3 and ends with TAA of the nucleotide number 1084-1086; expressed in transfected cells; host or cells: SE302 cells (HEK293 clone carrying a CRE-PLAP reporter), transduced with retrovirus from pBabeCL(GPR120)IH and selected with hygromycin
T1 sequence (Q5NUL3 1-361): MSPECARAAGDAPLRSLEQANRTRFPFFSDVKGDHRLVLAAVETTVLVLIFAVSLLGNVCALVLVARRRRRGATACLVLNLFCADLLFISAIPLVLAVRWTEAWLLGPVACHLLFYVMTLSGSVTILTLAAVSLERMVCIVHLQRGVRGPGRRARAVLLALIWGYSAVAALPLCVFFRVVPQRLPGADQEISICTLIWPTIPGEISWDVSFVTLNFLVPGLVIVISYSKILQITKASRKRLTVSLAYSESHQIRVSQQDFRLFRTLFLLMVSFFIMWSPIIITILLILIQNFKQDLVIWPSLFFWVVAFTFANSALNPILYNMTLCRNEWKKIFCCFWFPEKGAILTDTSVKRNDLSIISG

T2: mouse GPR120 (Mus musculus, UniProt Q7TMA4)
T2 construct: expressed in transfected cells; host or cells: SE302 cells (HEK293 clone carrying a CRE-PLAP reporter), transduced with retrovirus from pBabeCL(mGPR120)IH and selected with hygromycin
T2 sequence (Q7TMA4 1-361): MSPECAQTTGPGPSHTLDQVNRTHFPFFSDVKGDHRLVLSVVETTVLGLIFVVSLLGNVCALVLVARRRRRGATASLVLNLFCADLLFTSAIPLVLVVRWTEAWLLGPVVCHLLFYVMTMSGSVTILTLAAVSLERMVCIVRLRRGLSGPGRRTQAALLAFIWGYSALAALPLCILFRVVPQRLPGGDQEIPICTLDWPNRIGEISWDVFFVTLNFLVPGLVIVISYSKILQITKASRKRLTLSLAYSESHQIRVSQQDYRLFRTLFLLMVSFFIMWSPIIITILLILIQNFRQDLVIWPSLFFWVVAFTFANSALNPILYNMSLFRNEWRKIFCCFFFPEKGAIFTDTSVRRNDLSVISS


What was measured:
[1] = molecular target: T1, human GPR120; test: PLAP reporter transcription activity in GPR120-SE302 cells (CRE-PLAP reporter); assay type: cell-based; settings: HEK293-derived SE302 cells expressing human GPR120; forskolin 1.0 μM plus sample, 24 hours; chemiluminescence of supernatant; compared to control cells (GFP-SE302)
Experimental: (§1) Using a retrovirus vector plasmid pBabeCLcre4vPdNN capable of inducing a reporter PLAP gene by a cyclic AMP responsive element sequence, a retrovirus vector was prepared according to the method described in Example 4. The retrovirus vector prepared was introduced into HEK293 cells and cells were cloned by a limiting dilution method.
(§2) The SE302 cells constructed in Example 5 were seeded onto a collagen coated 6 well plate (Asahi Technoglass, Co.) at 1.2×10^5 cells per well. Cells were cultured with 2 mL/well of DMEM medium (Sigma, Co.) (containing 10% FBS, penicillin 100 units/mL and streptomycin 100 μg/mL). On the following day, solutions of the virus vector containing GPR120 or mGPR120 obtained in Example 4, and polybrene (also called hexadimethrine bromide, Sigma, Co.) at a final concentration of 8 μg/mL were added to SE302 cells. Cells were cultured with the medium containing 500 μg/mL of hygromycin (Invitrogen, Co.) and cells grown under this condition were used for experiments as SE302 cells introduced with GPR120 gene, and SE302 cells introduced with mGPR120 gene (referred to as “GPR120-SE302 cells” and “mGPR120-SE302 cells”, respectively hereinafter).
The aforementioned GPR120-SE302 cells or mGPR120-SE302 cells constructed in Example 6 were suspended in the culture medium for measurement of transcription activity (DMEM containing FBS which was heat-treated at 65° C. for 30 min at a final concentration of 10%) and seeded onto a 96 well plate (Becton Dickinson, Co.) at 1×10^4 cells/well. In addition, as control cells, SE302 cells expressing green fluorescent protein (GFP, Invitrogen, Co.) (referred to as “GFP-SE302 cells” hereinafter) were used. Specifically, GFP-302 cells were prepared by obtaining a virus for expressing GFP using the method shown in Example 3 and 4, and transfecting SE302 cells with the virus using the method shown in Example 6. Cells were cultured for 24 hours after seeding, and forskolin prepared at a final concentration of 1.0 μM and a sample were added. Cells were cultured for another 24 hours and 5 μL of the cell supernatant was recovered and transferred to a polypropylene 384-well white plate (Nalge Nunc International, Co.). Then, 20 μL of the assay buffer (280 mmol/L Na2CO3—NaHCO3, 8 mmol/L MgSO4, pH 10) and 25 μL of Lumiphos530 (Lumigen, Co.) were added. Following a 2-hour reaction at room temperature, chemiluminescence in each well was measured using a Fusion plate reader (Perkin Elmer, Co.) and was defined as the transcription activity. Based on these measured values, stimulation/inhibition of transcription activity was calculated using the equation (I) shown below and described as [% of control]. Activities of the group with a sample added were calculated using the value of control placed on each plate. […]

[2] = molecular target: T2, mouse GPR120; test: PLAP reporter transcription activity in mGPR120-SE302 cells (CRE-PLAP reporter); assay type: cell-based; settings: HEK293-derived SE302 cells expressing mouse GPR120; forskolin 1.0 μM plus sample, 24 hours; chemiluminescence of supernatant; compared to control cells (GFP-SE302)
Experimental: as §1, §2
The aforementioned GPR120-SE302 cells or mGPR120-SE302 cells constructed in Example 6 were suspended in the culture medium for measurement of transcription activity (DMEM containing FBS which was heat-treated at 65° C. for 30 min at a final concentration of 10%) and seeded onto a 96 well plate (Becton Dickinson, Co.) at 1×10^4 cells/well. In addition, as control cells, SE302 cells expressing green fluorescent protein (GFP, Invitrogen, Co.) (referred to as “GFP-SE302 cells” hereinafter) were used. Specifically, GFP-302 cells were prepared by obtaining a virus for expressing GFP using the method shown in Example 3 and 4, and transfecting SE302 cells with the virus using the method shown in Example 6. Cells were cultured for 24 hours after seeding, and forskolin prepared at a final concentration of 1.0 μM and a sample were added. Cells were cultured for another 24 hours and 5 μL of the cell supernatant was recovered and transferred to a polypropylene 384-well white plate (Nalge Nunc International, Co.). Then, 20 μL of the assay buffer (280 mmol/L Na2CO3—NaHCO3, 8 mmol/L MgSO4, pH 10) and 25 μL of Lumiphos530 (Lumigen, Co.) were added. Following a 2-hour reaction at room temperature, chemiluminescence in each well was measured using a Fusion plate reader (Perkin Elmer, Co.) and was defined as the transcription activity. Based on these measured values, stimulation/inhibition of transcription activity was calculated using the equation (I) shown below and described as [% of control]. Activities of the group with a sample added were calculated using the value of control placed on each plate. [% of control]=(X−C)/(F−C)×100 (I) Herein, in the above equation: • X: PLAP transcription activity in the group added with a sample, • F: Mean value of transcription activities in 2 wells of a positive control (no sample added, stimulated with forskolin), • C: Mean value of transcription activities in 2 wells of a negative control (no sample added, not stimulated with forskolin).

| Molecule | PLAP activity in GPR120-SE302 cells [1] | PLAP activity in mGPR120-SE302 cells [2] |
| --- | --- | --- |
| porcine pancreatic sPLA2: commercially-available (Sigma) porcine pancreatic sPLA2, reported to be mainly Group IB sPLA2 (Swiss Prot P00592) | concentration dependent elevation of PLAP activity | concentration dependent elevation of PLAP activity |
| hGX-sPLA2-His: purified human C-terminal His-tagged GX-sPLA2 from baculovirus-infected Sf9 cells (protein, UniProt O15496 43-165, looked up, C-terminal His6 tag, purified human C-terminal His-tagged GX-sPLA2 from baculovirus-infected Sf9 cells) Group 10 secretory …: GILELAGTVGCVGPRTPIAYMKYGCFCGLGGHGQPRDAIDWCCHGHDCCYTRAEEAGCSPKTERYSWQCVNQSVLCGPAENKCQELLCKCDQEIANCLAQTEYNLKYLFYPQFLCEPDSPKCD | – | concentration dependent elevation of PLAP activity |
| recombinant hGX-sPLA2: C-terminal FLAG-tagged human GX-sPLA2 (SEQ ID NO 43) produced in silkworm pupae, purified (protein, listed as Homo sapiens, C-terminal FLAG tag) MGPLPVCLPIMLLLLLPSLLLLLLLPGPGSGEASRILRVHRRGILELAGTVGCVGPRTPIAYMKYGCFCGLGGHGQPRDAIDWCCHGHDCCYTRAEEAGCSPKTERYSWQCVNQSVLCGPAENKCQELLCKCDQEIANCLAQTEYNLKYLFYPQFLCEPDSPKCDDYKDDDDK | concentration dependent elevation of PLAP activity | concentration dependent elevation of PLAP activity |
| recombinant mGX-sPLA2: C-terminal FLAG-tagged mouse GX-sPLA2 (SEQ ID NO 45) from baculovirus-infected Sf-9 cells, purified (protein, listed as Mus musculus, C-terminal FLAG tag) MLLLLLLLLLGPGPGFSEATRRSHVYKRGLLELAGTLDCVGPRSPMAYMNYGCYCGLGGHGEPRDAIDWCCYHHDCCYSRAQDAGCSPKLDRYPWKCMDHHILCGPAENKCQELLCRCDEELAYCLAGTEYHLKYLFFPSILCEKDSPKCNDYKDDDDK | concentration dependent elevation of PLAP activity | concentration dependent elevation of PLAP activity |
| GX-sPLA2: rat Group X secretory phospholipase A2 (SEQ ID NO 23) purified from rat intestinal tract and testis extracts (protein, listed as Rattus norvegicus) GLLELAGTLDCVGPRSPMAYMNYGCYCGLGGHGEPRDAIDWCCYYHDCCYSQAQDAGCSPKLYRYPWKCMDHRILCGPAENKCQELLCRCDETLAYCLADTEYHLKYLFFPSVLCEKDSPKCN | elevate PLAP activity specifically in GPR120-SE302 cells | – |
| mGX-sPLA2-His: purified mouse C-terminal His-tagged GX-sPLA2 from baculovirus-infected Sf9 cells (protein, UniProt Q9QXX3 29-151, looked up, C-terminal His6 tag, purified mouse C-terminal His-tagged GX-sPLA2 from baculovirus-infected Sf9 cells) Group 10 secretory …: GLLELAGTLDCVGPRSPMAYMNYGCYCGLGGHGEPRDAIDWCCYHHDCCYSRAQDAGCSPKLDRYPWKCMDHHILCGPAENKCQELLCRCDEELAYCLAGTEYHLKYLFFPSILCEKDSPKCN | – | concentration dependent elevation of PLAP activity |
